The text below walks through data of patent US20220135638A1 (Takeda / Millennium, published 2022).

Numbered stars: 1 amine (or outer) side, 2 acyl side, 3 side chain; on linkers, the order of the positions; unused ones are H or OH. Square brackets hold non-standard residues; d marks the D form. Primed or numbered codes have the meaning given here. Side chains are listed from the residue outwards. Ends that are not written are not given here. * marks the point of attachment. C20 diacid = O=C(O)CCCCCCCCCCCCCCCCCCC(=O)*; C18 diacid = O=C(O)CCCCCCCCCCCCCCCCC(=O)*; C16 diacid = O=C(O)CCCCCCCCCCCCCCC(=O)*; γGlu = O=C(O)[C@H](CCC(=O)[*:2])N[*:1]; Iva = CC[C@](C)(N)C(=O)O; PEG3′ = not defined here; Aib = CC(C)(N)C(=O)O

First the molecules themselves.
B1: Compound No. 510 (peptide)
peptide: Y[Aib]EGTFISDYSIALDR[Aib]HQ[Aib]NFVNW[Iva]LAQRK([PEG3′-γGlu-C18 diacid])SSGAPPPS
modifications: ends and bridges not checked
B2: Compound No. 511 (peptide)
peptide: Y[Aib]EGTFISDYSIALDR[Aib]HQ[Aib]NFVNW[Iva]LAQRK([PEG3′-γGlu-C20 diacid])SSGAPPPS
modifications: ends and bridges not checked
B3: Compound No. 524 (peptide)
peptide: Y[Aib]EGTFISDYSIALDR[Aib]HQ[Aib]NFVNW[Iva]LAQRPSSGAK([PEG3′-γGlu-C16 diacid])PPS
modifications: ends and bridges not checked
B4: Compound No. 526 (peptide)
peptide: Y[Aib]EGTFISDYSIALDR[Aib]HQ[Aib]NFVNW[Iva]LAQRPSSGAK([PEG3′-γGlu-C20 diacid])PPS
modifications: ends and bridges not checked
B5: Compound No. 517 (peptide)
peptide: Y[Aib]EGTFISDYSIALDR[Aib]HQ[Aib]NFVNW[Iva]LAQRPSK([PEG3′-γGlu-C20 diacid])GAPPPS
modifications: ends and bridges not checked
B6: Compound No. 502 (peptide)
peptide: Y[Aib]EGTFISDYSIALDR[Aib]HQ[Aib]NFVNW[Iva]LAQRPSSGAK([PEG3′-PEG3′-γGlu-C20 diacid])PPS
modifications: ends and bridges not checked
B7: Compound No. 515 (peptide)
peptide: Y[Aib]EGTFISDYSIALDR[Aib]HQ[Aib]NFVNW[Iva]LAQRPSK([PEG3′-γGlu-C16 diacid])GAPPPS
modifications: ends and bridges not checked
B8: Compound No. 525 (peptide)
peptide: Y[Aib]EGTFISDYSIALDR[Aib]HQ[Aib]NFVNW[Iva]LAQRPSSGAK([PEG3′-γGlu-C18 diacid])PPS
modifications: ends and bridges not checked
B9: Compound No. 519 (peptide)
peptide: Y[Aib]EGTFISDYSIALDR[Aib]HQ[Aib]NFVNW[Iva]LAQRPSSK([PEG3′-γGlu-C18 diacid])APPPS
modifications: ends and bridges not checked
B10: Compound No. 516 (peptide)
peptide: Y[Aib]EGTFISDYSIALDR[Aib]HQ[Aib]NFVNW[Iva]LAQRPSK([PEG3′-γGlu-C18 diacid])GAPPPS
modifications: ends and bridges not checked
B11: Compound No. 514 (peptide)
peptide: Y[Aib]EGTFISDYSIALDR[Aib]HQ[Aib]NFVNW[Iva]LAQRPK([PEG3′-γGlu-C20 diacid])SGAPPPS
modifications: ends and bridges not checked
B12: Compound No. 504 (peptide)
peptide: Y[Aib]EGTFISDYSIALDR[Aib]HQ[Aib]NFVNW[Iva]LAQRPSSGAPK([PEG3′-PEG3′-γGlu-Ida])PS
modifications: ends and bridges not checked
B13: Compound No. 501 (peptide)
peptide: Y[Aib]EGTFISDYSIALDR[Aib]HQ[Aib]NFVNW[Iva]LAQRPSSGAK([PEG3′-PEG3′-γGlu-Ida])PPS
modifications: ends and bridges not checked
B14: Compound No. 523 (peptide)
peptide: Y[Aib]EGTFISDYSIALDR[Aib]HQ[Aib]NFVNW[Iva]LAQRPSSGK([PEG3′-γGlu-C20 diacid])PPPS
modifications: ends and bridges not checked
B15: Compound No. 527 (peptide)
peptide: Y[Aib]EGTFISDYSIALDR[Aib]HQ[Aib]NFVNW[Iva]LAQRPSSGAPK([PEG3′-γGlu-C16 diacid])PS
modifications: ends and bridges not checked
B16: Compound No. 509 (peptide)
peptide: Y[Aib]EGTFISDYSIALDR[Aib]HQ[Aib]NFVNW[Iva]LAQRK([PEG3′-γGlu-C16 diacid])SSGAPPPS
modifications: ends and bridges not checked
B17: Compound No. 513 (peptide)
peptide: Y[Aib]EGTFISDYSIALDR[Aib]HQ[Aib]NFVNW[Iva]LAQRPK([PEG3′-γGlu-C18 diacid])SGAPPPS
modifications: ends and bridges not checked
B18: Compound No. 521 (peptide)
peptide: Y[Aib]EGTFISDYSIALDR[Aib]HQ[Aib]NFVNW[Iva]LAQRPSSGK([PEG3′-γGlu-C16 diacid])PPPS
modifications: ends and bridges not checked
B19: Compound No. 520 (peptide)
peptide: Y[Aib]EGTFISDYSIALDR[Aib]HQ[Aib]NFVNW[Iva]LAQRPSSK([PEG3′-γGlu-C20 diacid])APPPS
modifications: ends and bridges not checked
B20: Compound No. 512 (peptide)
peptide: Y[Aib]EGTFISDYSIALDR[Aib]HQ[Aib]NFVNW[Iva]LAQRPK([PEG3′-γGlu-C16 diacid])SGAPPPSS
modifications: ends and bridges not checked
B21: Compound No. 528 (peptide)
peptide: Y[Aib]EGTFISDYSIALDR[Aib]HQ[Aib]NFVNW[Iva]LAQRPSSGAPK([PEG3′-γGlu-C18 diacid])PS
modifications: ends and bridges not checked
B22: Compound No. 522 (peptide)
peptide: Y[Aib]EGTFISDYSIALDR[Aib]HQ[Aib]NFVNW[Iva]LAQRPSSGK([PEG3′-γGlu-C18 diacid])PPPS
modifications: ends and bridges not checked
B23: Compound No. 518 (peptide)
peptide: Y[Aib]EGTFISDYSIALDR[Aib]HQ[Aib]NFVNW[Iva]LAQRPSSK([PEG3′-γGlu-C16 diacid])APPPS
modifications: ends and bridges not checked
B24: Compound No. 505 (peptide)
peptide: Y[Aib]EGTFISDYSIALDR[Aib]HQ[Aib]NFVNW[Iva]LAQRPSSGAPK([PEG3′-PEG3′-γGlu-C20 diacid])PS
modifications: ends and bridges not checked
B25: Compound No. 503 (peptide)
peptide: Y[Aib]EGTFISDYSIALDR[Aib]HQ[Aib]NFVNW[Iva]LAQRPSSGAPK([PEG3′-PEG3′-γGlu-C16 diacid])PS
modifications: ends and bridges not checked
B26: Compound No. 500 (peptide)
peptide: Y[Aib]EGTFISDYSIALDR[Aib]HQ[Aib]NFVNW[Iva]LAQRPSSGAK([PEG3′-PEG3′-γGlu-C16 diacid])PPS
modifications: ends and bridges not checked

In the first assay the target is T1, full-length human GIPR (GenBank NM_000164) with an N-terminal FLAG tag on HEK-293T cells (human), P48546.
T1 chain: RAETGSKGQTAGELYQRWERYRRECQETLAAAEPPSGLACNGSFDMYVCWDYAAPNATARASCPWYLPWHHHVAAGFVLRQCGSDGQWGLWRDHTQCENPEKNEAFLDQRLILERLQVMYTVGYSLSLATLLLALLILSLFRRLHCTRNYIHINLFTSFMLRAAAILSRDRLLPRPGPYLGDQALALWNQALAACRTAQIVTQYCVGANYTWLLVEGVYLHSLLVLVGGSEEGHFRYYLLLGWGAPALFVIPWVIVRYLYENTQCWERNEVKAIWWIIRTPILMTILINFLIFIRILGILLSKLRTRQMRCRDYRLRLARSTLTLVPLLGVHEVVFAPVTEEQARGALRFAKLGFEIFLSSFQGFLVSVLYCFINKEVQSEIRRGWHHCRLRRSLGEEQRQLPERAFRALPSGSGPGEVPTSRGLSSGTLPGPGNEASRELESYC
The assay can be described thus: cell-based or functional assay.
In the case of B1, the GIP EC50(pM) came to 0.83 pM.

Molecule B2 yielded a GIP EC50(pM) of 1.61 pM.

Regarding B3, the GIP EC50(pM) amounted to 1.29 pM.

For the molecule B4, the GIP EC50(pM) stood at 1.5 pM.

As to B5, the GIP EC50(pM) came to 1.99 pM.

As for B6, the GIP EC50(pM) came out at 1.78 pM.

Turning to B7, the GIP EC50(pM) stood at 0.54 pM.

In turn, B8 registered a GIP EC50(pM) of 0.82 pM.

With B9, the GIP EC50(pM) stood at 1.26 pM.

B10 yielded a GIP EC50(pM) of 1.02 pM.

The molecule B11 showed a GIP EC50(pM) of 1.14 pM.

As for B12, the GIP EC50(pM) was determined as 1.08 pM.

The molecule B13 gave a GIP EC50(pM) of 0.92 pM.

B14 showed a GIP EC50(pM) of 2.98 pM.

For B15, the GIP EC50(pM) came to 0.37 pM.

Regarding B16, the GIP EC50(pM) worked out at 0.54 pM.

B17 had a GIP EC50(pM) of 0.5 pM.

As to B18, the GIP EC50(pM) was found to be 0.9 pM.

The molecule B19 displayed a GIP EC50(pM) of 2.68 pM.

Turning to B20, the GIP EC50(pM) came out at 0.53 pM.

In the case of B21, the GIP EC50(pM) amounted to 0.87 pM.

In turn, B22 yielded a GIP EC50(pM) of 1.51 pM.

Consider B23, for which the GIP EC50(pM) came out at 0.61 pM.

Take B24: the GIP EC50(pM) is 2.11 pM.

With B25, the GIP EC50(pM) came out at 0.49 pM.

Molecule B26 gave a GIP EC50(pM) of 0.59 pM.

The target in a further assay is T2, full-length human GLP-1R (GenBank NM_002062) with an N-terminal FLAG tag on HEK-293T cells (human), P43220.
T2 chain: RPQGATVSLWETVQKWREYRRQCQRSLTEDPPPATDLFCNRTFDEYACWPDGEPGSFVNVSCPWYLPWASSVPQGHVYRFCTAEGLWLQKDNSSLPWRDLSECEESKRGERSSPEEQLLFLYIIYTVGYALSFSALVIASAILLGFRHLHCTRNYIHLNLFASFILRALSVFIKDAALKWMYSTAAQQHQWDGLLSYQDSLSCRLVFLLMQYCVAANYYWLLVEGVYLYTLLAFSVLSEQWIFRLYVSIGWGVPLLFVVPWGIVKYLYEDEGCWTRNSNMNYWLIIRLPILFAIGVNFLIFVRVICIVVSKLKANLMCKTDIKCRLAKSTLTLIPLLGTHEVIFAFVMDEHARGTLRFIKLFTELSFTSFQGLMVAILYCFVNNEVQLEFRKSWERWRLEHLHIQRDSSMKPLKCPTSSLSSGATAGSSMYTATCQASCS
The assay can be described thus: cell-based or functional assay.
For B1, the GLP EC50 is over 1000 nM.

The molecule B2 yielded a GLP EC50 of over 1000 nM.

B3 displayed a GLP EC50 of over 1000 nM.

B4 gave a GLP EC50 of over 1000 nM.

B5 gave a GLP EC50 of over 1000 nM.

For B6, the GLP EC50 was over 1000 nM.

The molecule B7 displayed a GLP EC50 of over 1000 nM.

B8 displayed a GLP EC50 of over 1000 nM.

B9 registered a GLP EC50 of over 1000 nM.

B10 displayed a GLP EC50 of over 1000 nM.

Turning to B11, the GLP EC50 is over 1000 nM.

B12 registered a GLP EC50 of over 1000 nM.

The molecule B13 gave a GLP EC50 of over 1000 nM.

For B14, the GLP EC50 is over 1000 nM.

As for B15, the GLP EC50 was 479 nM.

Molecule B16 gave a GLP EC50 of over 1000 nM.

Molecule B17 came in with a GLP EC50 of over 1000 nM.

B18 yielded a GLP EC50 of over 1000 nM.

Molecule B19 came in with a GLP EC50 of over 1000 nM.

The molecule B20 returned a GLP EC50 of 126 nM.

B21: the GLP EC50 is over 1000 nM.

As for B22, the GLP EC50 is over 1000 nM.

Regarding B23, the GLP EC50 is over 1000 nM.

The molecule B24 gave a GLP EC50 of over 1000 nM.

Molecule B25 gave a GLP EC50 of over 1000 nM.

As to B26, the GLP EC50 is over 1000 nM.
